Data: US20250152729A1 (CANCER RESEARCH TECHNOLOGY, published 2025)

Biological target: T1, cynomolgus SEMA4A expressed on expi293 cells (UniProt ID G7NV79) (cynomolgus, UniProt Q9H3S1 33-761 (human entry))
T1 construct: Transient transfection in expi293 cells; also called cyno SEMA4A
T1 chain: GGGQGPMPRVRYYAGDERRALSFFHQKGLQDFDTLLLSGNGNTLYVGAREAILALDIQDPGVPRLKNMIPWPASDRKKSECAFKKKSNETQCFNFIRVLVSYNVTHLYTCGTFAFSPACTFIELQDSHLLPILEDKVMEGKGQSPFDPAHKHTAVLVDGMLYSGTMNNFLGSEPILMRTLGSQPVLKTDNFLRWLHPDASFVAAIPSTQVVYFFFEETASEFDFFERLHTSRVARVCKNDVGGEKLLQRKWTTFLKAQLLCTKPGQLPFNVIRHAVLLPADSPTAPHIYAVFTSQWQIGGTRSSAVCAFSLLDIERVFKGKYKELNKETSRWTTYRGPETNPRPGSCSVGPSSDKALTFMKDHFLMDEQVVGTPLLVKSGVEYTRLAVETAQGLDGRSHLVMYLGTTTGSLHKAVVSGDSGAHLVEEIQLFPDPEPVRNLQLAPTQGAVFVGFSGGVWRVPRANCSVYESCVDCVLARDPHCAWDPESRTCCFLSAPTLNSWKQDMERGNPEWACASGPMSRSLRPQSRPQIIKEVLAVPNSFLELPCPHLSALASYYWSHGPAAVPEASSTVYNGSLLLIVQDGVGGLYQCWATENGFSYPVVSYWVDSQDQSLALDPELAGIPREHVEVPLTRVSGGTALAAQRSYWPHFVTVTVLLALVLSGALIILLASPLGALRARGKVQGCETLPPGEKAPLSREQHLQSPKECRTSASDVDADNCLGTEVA
Assay: Mirrorball direct binding, dilution series on expi293 cells transiently transfected with cynomolgus SEMA4A, anti-human Alexa Fluor 647
Description: Hits from the primary screening were re-formatted into the human Alya IgG1 vector and re-expressed and purified as described in section 4.1. In addition, a single clone was identified that contained an Asparagine deamidation motif (Asn Gly) within its VHCDR2. This potential sequence liability was de-risked by synthesising de novo two clonal variant VH genes (Asn Ala and Gln Gly) and cloning these sequences into the human Alya IgG1 expression vector. To determine the specificity profile of each purified human Alya IgG1, a dilution series was tested for binding to human SEMA4A, mouse SEMA4A, cyno SEMA4A, human SEMA4B and mock transfected cells (transient transfections set up in expi 293 cells.) The five assays employed methods described in section 2.3, using the appropriate cells and substituting the un-purified scFv periplasmic preparation with the recombinant human Alya IgG1 dilution series. Data was analysed as Count x median mean intensity (x FLU).

B1: mouse 5E3 expressed as human IgG1 Alya (antibody, V domains shown)
VH: QVQLQQPGAELVMPGASVKMSCKASGYTFTDYWMHWVKQRPGQGLEWIGAIDTSDSYTSYNQKFKGKATLTVDESSSTAYMQLSSLTSEDSAVYYCARDYGNFYYYAMDYWGQGTSVTVSS
VL: QAVVTQESALTTSPGETVTLTCRSSTGAVTTSNYANWVQEKPDHLFTGLIGGTNNRAPGVPARFSGSLIGDKAALTITGAQTEDEAIYFCALWYSNHWVFGGGTKLTVL
notes: Mouse variable domains on human IgG1 Alya constant (pEU1.22; 239iCys and S442C, EU numbering); purified, unconjugated; also called 5E3 IgG1 Alya
**Q.** Does B1 bind?
**A.** binds
